{"source": "patent US20030235535A1", "about": "(University of California, published 2003)", "molecules": {"B1": {"name": "^125I-human PK2 (ligand)", "chain": "AVITGACDKDSQCGGGMCCAVSIWVKSIRICTPMGKLGDSCHPLTRKVPFFGRRMHHTCPCLPGLACLRTSFNRFICLAQK", "modifications": "radioiodinated with ^125I (paragraph 77 describes human PK2 radioiodinated at the core Tyr, citing Li et al. 2001)", "notes": "also called iodinated PK2"}}, "key": {"[1]": {"target": "T1, mouse PK2 receptor (mouse, UniProt Q8K458 1-381)", "T1 construct": "Heptahelical G-protein-coupled receptor; also called mouse PKR2", "T1 sequence (Q8K458 whole entry)": "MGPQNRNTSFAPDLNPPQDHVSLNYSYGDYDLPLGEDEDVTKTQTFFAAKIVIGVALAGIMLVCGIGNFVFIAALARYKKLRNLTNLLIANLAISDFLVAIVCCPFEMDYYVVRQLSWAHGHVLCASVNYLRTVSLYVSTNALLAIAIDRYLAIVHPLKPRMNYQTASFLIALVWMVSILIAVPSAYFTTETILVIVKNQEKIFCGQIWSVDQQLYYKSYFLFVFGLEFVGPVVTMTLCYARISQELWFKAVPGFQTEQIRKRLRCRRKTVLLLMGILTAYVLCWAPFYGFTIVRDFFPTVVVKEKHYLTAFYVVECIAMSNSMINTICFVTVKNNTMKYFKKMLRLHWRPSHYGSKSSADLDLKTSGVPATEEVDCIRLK", "experiment": "cell-based or functional assay"}, "[2]": {"target": "PKR2 stably expressed in Chinese Hamster Ovary cells (CHO-PKR2)", "experiment": "cell-based or functional assay"}, "[3]": {"target": "T1, mouse PK2 receptor", "experiment": "radioligand binding assay with iodinated PK2 (FIG. 11)", "description": "An exemplary assay for determining binding of detectably labeled PK2, PK1 or PK2/PK1 chimera to PK2 receptor or PK1 receptor is the radioligand filter binding assay described in Li et al. Molecular Pharmacology 59:692-698 (2001)). […] A variety of other low- and high-throughput assays suitable for detecting selective binding interactions between a receptor and a ligand are known in the art. Such assays include, for example, fluorescence correlation spectroscopy (FCS) and scintillation proximity assays (SPA) reviewed in Major, J. Receptor and Signal Transduction Res. 15:595-607 (1995); and in Sterrer et al., J. Receptor and Signal Transduction Res. 17:511-520 (1997)). Binding assays can be performed in any suitable assay format including, for example, cell preparations such as whole cells or membranes that contain PK2 receptor or PK1 receptor, or substantially purified PK2 receptor polypeptide or PK1 receptor, either in solution or bound to a solid support."}}}
{"molecule": "human PK2 (from UniProt Q9HC23 28-129) (ligand)", "values": [{"measurement": "calcium ion mobilization (PK2 receptor activation assay), printed as kd", "setting": "[1]", "result": 2.9, "unit": "nM"}]}
{"molecule": "purified recombinant mouse PK2 (from UniProt Q9QXU7 27-128) (ligand)", "values": [{"measurement": "EC50, calcium mobilization", "setting": "[2]", "result": 7.3, "unit": "nM"}, {"measurement": "fold stimulation of CLOCK:BMAL1-mediated transcription of the 2.8 kb PK2 promoter (luciferase reporter)", "setting": "[2]", "result": 4, "unit": "fold"}]}
{"molecule": "B1", "values": [{"measurement": "Kd", "setting": "[3]", "result": "~1", "unit": "nM"}]}
